Experimental data as given in the supplement of paper PMC7125110.
± gives the standard error. Variants at the floor of the assay were thinned out.

B1: glmS ribozyme (parent)
chain: AUAAAAGCGCCAGAACUACAGAAAUGUAGUUGACGAGGAGGAGGUUUAUCGAAUUUUCGGCGGAUGCCUCCAAA

Variants of: B1
Assay: self-cleavage kobs at 2500 uM GlcN6P; higher = faster cleavage; RNA array
Conditions: with glucosamine-6-phosphate
Summary of the method: (§1)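 Barcoded ribozyme variants, transcribed in situ by E. coli RNA polymerase on sequenced MiSeq chips, were followed via a hybridised Cy3 probe at 37 °C. Glucosamine-6-phosphate ranged from 40 μM to 10 mM in HEPES/KCl/Mg(OAc)2 buffer. kobs came from decay fits to per-tile medians, and kcat and KM from weighted Michaelis–Menten fits.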

First: G13C G29C G38U C67G
Second: C8U C10G G38A
The “self-cleavage kobs at 2500 uM GlcN6P” value of the first is higher: 0.000596 ± 0.0002 s⁻¹ for the first, < 1e-05 s⁻¹ for the second.

First: A12G A14C A53U A64C
Second: C11U U54C C67A
The “self-cleavage kobs at 2500 uM GlcN6P” value of the first is lower: < 1e-05 s⁻¹ for the first, 0.00025 ± 8e-05 s⁻¹ for the second.

Going from A52U C67A C71U to A15C U31G G59C, the “self-cleavage kobs at 2500 uM GlcN6P” value falls from 7.56e-05 ± 3.1e-05 s⁻¹ to < 1e-05 s⁻¹.

First: G29C G40A U56G
Second: G43A G44A U47A G59C
The “self-cleavage kobs at 2500 uM GlcN6P” value of the first is higher: 4.42e-05 ± 1.1e-05 s⁻¹ for the first, < 1e-05 s⁻¹ for the second.

Going from C11A A14U C71U to A39C G59A G62C, the “self-cleavage kobs at 2500 uM GlcN6P” value falls from 6.69e-05 ± 2.1e-05 s⁻¹ to < 1e-05 s⁻¹.

Compared with G44U U46A, A36U A48U U56C is lower in “self-cleavage kobs at 2500 uM GlcN6P” value: 0.000112 ± 3.8e-05 s⁻¹ for the first, < 1e-05 s⁻¹ for the second.

Going from G32C G66U C70A to A39G C50U U55A C70U, the “self-cleavage kobs at 2500 uM GlcN6P” value rises from < 1e-05 s⁻¹ to 4.43e-05 ± 1.7e-05 s⁻¹.

G13U U31G G41U G43U and A14G G37U G44U cannot be ordered by “self-cleavage kobs at 2500 uM GlcN6P” value: < 1e-05 s⁻¹ for the first, < 1e-05 s⁻¹ for the second.

C8A A48C U49A and G9C A52U C58U cannot be ordered by “self-cleavage kobs at 2500 uM GlcN6P” value: < 1e-05 s⁻¹ for the first, < 1e-05 s⁻¹ for the second.

G29A G60U A64G and A12C G37U A52G cannot be ordered by “self-cleavage kobs at 2500 uM GlcN6P” value: < 1e-05 s⁻¹ for the first, < 1e-05 s⁻¹ for the second.

G7C A53G C70A and U46G G59C C68U C70A cannot be ordered by “self-cleavage kobs at 2500 uM GlcN6P” value: < 1e-05 s⁻¹ for the first, < 1e-05 s⁻¹ for the second.

Going from U30C U45G C70U to G7A U31C G35C A42C U46G U54G, the “self-cleavage kobs at 2500 uM GlcN6P” value falls from 7.88e-05 ± 1.9e-05 s⁻¹ to < 1e-05 s⁻¹.

C10G G35U U46G C68A and G7C A12U A39G A53U cannot be ordered by “self-cleavage kobs at 2500 uM GlcN6P” value: < 1e-05 s⁻¹ for the first, < 1e-05 s⁻¹ for the second.

A33G U56C G60A and A12U G35U A53U C61G U65C cannot be ordered by “self-cleavage kobs at 2500 uM GlcN6P” value: < 1e-05 s⁻¹ for the first, < 1e-05 s⁻¹ for the second.

A14U A36U G41A A48G C68U and G35C U46C A52C U54C cannot be ordered by “self-cleavage kobs at 2500 uM GlcN6P” value: < 1e-05 s⁻¹ for the first, < 1e-05 s⁻¹ for the second.

Compared with C11U A12G A15U, G9U G32A A33C is lower in “self-cleavage kobs at 2500 uM GlcN6P” value: 0.000175 ± 4.8e-05 s⁻¹ for the first, < 1e-05 s⁻¹ for the second.

Compared with G9C C11G C71U, G41U U56C C70G is higher in “self-cleavage kobs at 2500 uM GlcN6P” value: < 1e-05 s⁻¹ for the first, 0.00166 ± 0.00032 s⁻¹ for the second.

Going from G41C A42G C70A to G40U A48U A52U, the “self-cleavage kobs at 2500 uM GlcN6P” value falls from 6.34e-05 ± 1.5e-05 s⁻¹ to < 1e-05 s⁻¹.

C8G A15G U30C A42G U45A U46G and A12U A33U A42G G51C U55A C71G cannot be ordered by “self-cleavage kobs at 2500 uM GlcN6P” value: < 1e-05 s⁻¹ for the first, < 1e-05 s⁻¹ for the second.

A33C U56C C71A and A14G U31G G43C cannot be ordered by “self-cleavage kobs at 2500 uM GlcN6P” value: < 1e-05 s⁻¹ for the first, < 1e-05 s⁻¹ for the second.

First: A52G U57G C58U
Second: A14G A33U G60U
The “self-cleavage kobs at 2500 uM GlcN6P” value of the first is higher: 4.96e-05 ± 1.8e-05 s⁻¹ for the first, < 1e-05 s⁻¹ for the second.

First: G40C U54G C70U
Second: C11G A12C A48C
The “self-cleavage kobs at 2500 uM GlcN6P” value of the first is higher: 0.000933 ± 0.00021 s⁻¹ for the first, < 1e-05 s⁻¹ for the second.

First: G7A A48G C70U
Second: G40U U47G U54C
The “self-cleavage kobs at 2500 uM GlcN6P” value of the first is lower: < 1e-05 s⁻¹ for the first, 0.00079 ± 0.00014 s⁻¹ for the second.

C10U G13U A64C and G32C A64G C70A cannot be ordered by “self-cleavage kobs at 2500 uM GlcN6P” value: < 1e-05 s⁻¹ for the first, < 1e-05 s⁻¹ for the second.

Compared with C10U A12U A42G, G32U G40C A42G is 2.1-fold lower in “self-cleavage kobs at 2500 uM GlcN6P” value: 0.000153 ± 5.7e-05 s⁻¹ for the first, 7.39e-05 ± 1.8e-05 s⁻¹ for the second.

First: A14G G41U U69A
Second: U31G A33C G38C A39G G62A
The “self-cleavage kobs at 2500 uM GlcN6P” value of the first is higher: 8.6e-05 ± 2e-05 s⁻¹ for the first, < 1e-05 s⁻¹ for the second.

Compared with C16G G43U U45A U65G C68U C70U, C8G A33G A52G A53G C68A U69G is higher in “self-cleavage kobs at 2500 uM GlcN6P” value: < 1e-05 s⁻¹ for the first, 0.000457 ± 0.00011 s⁻¹ for the second.

First: C19U G41C U55C C70A
Second: G44U U46G C67A
The “self-cleavage kobs at 2500 uM GlcN6P” value of the first is 19-fold lower: 0.000203 ± 9.2e-05 s⁻¹ for the first, 0.00376 ± 0.00093 s⁻¹ for the second.

First: A36C C61G G63U C68A
Second: U30A G43C G51C C67G
The “self-cleavage kobs at 2500 uM GlcN6P” value of the first is higher: 0.000112 ± 3.9e-05 s⁻¹ for the first, < 1e-05 s⁻¹ for the second.

Going from C19A U31C U45G to A12U G13C U56G C67U, the “self-cleavage kobs at 2500 uM GlcN6P” value falls from 0.000156 ± 4.3e-05 s⁻¹ to < 1e-05 s⁻¹.

G38U U45G G51A C67U and G35U C58G A64U cannot be ordered by “self-cleavage kobs at 2500 uM GlcN6P” value: < 1e-05 s⁻¹ for the first, < 1e-05 s⁻¹ for the second.

G7C G21U C67G and A12C A33G cannot be ordered by “self-cleavage kobs at 2500 uM GlcN6P” value: < 1e-05 s⁻¹ for the first, < 1e-05 s⁻¹ for the second.

Compared with A42U A53G C61A C67G, G38U U49G U57A C70G is higher in “self-cleavage kobs at 2500 uM GlcN6P” value: < 1e-05 s⁻¹ for the first, 6.84e-05 ± 3.3e-05 s⁻¹ for the second.

Going from A39U G66A C68G to C16U G32C A36G C58G G59C C61A, the “self-cleavage kobs at 2500 uM GlcN6P” value falls from 4.5e-05 ± 2e-05 s⁻¹ to < 1e-05 s⁻¹.

G37A G40C U47G U56G G60C C71G and G9U C16A U30G cannot be ordered by “self-cleavage kobs at 2500 uM GlcN6P” value: < 1e-05 s⁻¹ for the first, < 1e-05 s⁻¹ for the second.

First: A12G U45G U54G
Second: A33C U49C C70U
The “self-cleavage kobs at 2500 uM GlcN6P” value of the first is higher: 0.000192 ± 5.5e-05 s⁻¹ for the first, < 1e-05 s⁻¹ for the second.

A42U A53G C61G and A15U G35C C68G cannot be ordered by “self-cleavage kobs at 2500 uM GlcN6P” value: < 1e-05 s⁻¹ for the first, < 1e-05 s⁻¹ for the second.

Compared with C16U G29C A64G G66C, A6G C16A C34A A36U G43U is lower in “self-cleavage kobs at 2500 uM GlcN6P” value: 0.000347 ± 0.00011 s⁻¹ for the first, < 1e-05 s⁻¹ for the second.

G7U U45A C58A and G38A A39U A64C cannot be ordered by “self-cleavage kobs at 2500 uM GlcN6P” value: < 1e-05 s⁻¹ for the first, < 1e-05 s⁻¹ for the second.

G13A G29U G60U G66A and A12G A53G G63C cannot be ordered by “self-cleavage kobs at 2500 uM GlcN6P” value: < 1e-05 s⁻¹ for the first, < 1e-05 s⁻¹ for the second.

Going from G37C C67U C71A to C11A G43U U54G, the “self-cleavage kobs at 2500 uM GlcN6P” value falls from 5.9e-05 ± 2.4e-05 s⁻¹ to < 1e-05 s⁻¹.

Variants of: B1
Assay: self-cleavage kobs at 10000 uM GlcN6P; higher = faster cleavage; RNA array
Conditions: with glucosamine-6-phosphate
Summary of the method: as §1

Compared with C11A A14U C71U, G44U U46A is 2.5-fold higher in “self-cleavage kobs at 10000 uM GlcN6P” value: 4.6e-05 ± 1.3e-05 s⁻¹ for the first, 0.000117 ± 2.9e-05 s⁻¹ for the second.

Compared with C11U A12G A15U, A14G A33U G60U is lower in “self-cleavage kobs at 10000 uM GlcN6P” value: 0.000193 ± 4.2e-05 s⁻¹ for the first, < 1e-05 s⁻¹ for the second.

For A12C A33G, the “self-cleavage kobs at 10000 uM GlcN6P” value was < 1e-05 s⁻¹.
